This is an account of results in the supplement of paper PMC11246515.

± gives the standard deviation of the averaged measurements.

This data set is described as follows: total protein half-life in vivo (active degradation + dilution); higher = more stable protein.
Where [1] appears, read: E. coli NCM3722 delta-clpP delta-lon delta-hslV, growth: N-lim chemostat, doubling time 6 h.
Where [2] appears, read: E. coli NCM3722 delta-lon, growth: N-lim chemostat, doubling time 6 h.
The mark [3] stands for this setting: E. coli NCM3722 delta-smpB, growth: N-lim chemostat, doubling time 6 h.
[4] abbreviates: wild type E. coli NCM3722, growth: C-lim chemostat, doubling time 6 h.
Where [5] appears, read: wild type E. coli NCM3722, growth: C-lim chemostat, doubling time 12 h.
The mark [6] stands for this setting: wild type E. coli NCM3722, growth: N-lim chemostat, doubling time 6 h.
Setting [7] is: wild type E. coli NCM3722, growth: N-lim chemostat, doubling time 12 h.
[8] abbreviates: wild type E. coli NCM3722, growth: P-lim chemostat, doubling time 6 h.
The mark [9] stands for this setting: wild type E. coli NCM3722, growth: P-lim chemostat, doubling time 12 h.
Where [10] appears, read: wild type E. coli NCM3722, growth: C-lim chemostat, doubling time 3 h.
Setting [11] is: E. coli NCM3722 delta-clpP, growth: N-lim chemostat, doubling time 6 h.
[12] abbreviates: E. coli NCM3722 delta-hslV, growth: N-lim chemostat, doubling time 6 h.

In the case of “MNTNVFRLLLLGSLFSLSACVQQSEVRQMKHSVSTLNQEMTQLNQETVKITQQNRLNAKSSSGVYLLPGAKTPARLESQIGTLRMSLVNITPDADGTTLTLRIQGESNDPLPAFSGTVEYGQIQGTIDNFQEINVQNQLINAPASVLAPSDVDIPLQLKGISVDQLGFVRIHDIQPVMQ”, the “total protein half-life in vivo” value under setting [1] was 6.62 ± 0.76 h; the “total protein half-life in vivo” value under setting [2] was 6.77 ± 0.76 h; the “total protein half-life in vivo” value under setting [3] was found to be 6.22 ± 0.65 h; the “total protein half-life in vivo” value under setting [4] amounted to 5.54 ± 0.6 h; the “total protein half-life in vivo” value under setting [5] came out at 11.3 h; the “total protein half-life in vivo” value under setting [6] came to 5.64 ± 1.1 h. Further, the “total protein half-life in vivo” value runs as follows: under setting [7], 13.9 h; under setting [8], 6.02 ± 0.69 h; under setting [9], 12.7 ± 1.5 h.
On to “MMDNDNSLNKRPTFKRALRNISMTSIFITMMLIWLLLSVTSVLTLKQYAQKNLALTAATMTYSLEAAVVFADGPAATETLAALGQQGQFSTAEVRDKQQNILASWHYTRKDPGDTFSNFISHWLFPAPIIQPIRHNGETIGEVRLTARDSSISHFIWFSLAVLTGCILLASGIAITLTRHLHNGLVEALKNITDVVHDVRSNRNFSRRVSEERIAEFHRFALDFNSLLDEMEEWQLRLQAKNAQLLRTALHDPLTGLANRAAFRSGINTLMNNSDARKTSALLFLDGDNFKYINDTWGHATGDRVLIEIAKRLAEFGGLRHKAYRLGGDEFAMVLYDVQSESEVQQICSALTQIFNLPFDLHNGHQTTMTLSIGYAMTIEHASAEKLQELADHNMYQAKHQRAEKLVR”, for which the “total protein half-life in vivo” value under setting [1] worked out at 4.053 ± 0.0067 h, the “total protein half-life in vivo” value under setting [6] was 0.877 h and the “total protein half-life in vivo” value under setting [8] was determined as 1.69 h.
Turning to “MAILGLGTDIVEIARIEAVIARSGDRLARRVLSDNEWAIWKTHHQPVRFLAKRFAVKEAAAKAFGTGIRNGLAFNQFEVFNDELGKPRLRLWGEALKLAEKLGVANMHVTLADERHYACATVIIES”, the “total protein half-life in vivo” value under setting [1] stood at 5.28 ± 0.087 h; the “total protein half-life in vivo” value under setting [2] is 5.71 ± 0.46 h; the “total protein half-life in vivo” value under setting [3] was 5.093 ± 0.018 h; the “total protein half-life in vivo” value under setting [10] was 2.85 ± 0.081 h; the “total protein half-life in vivo” value under setting [4] came out at 5.87 ± 0.26 h; the “total protein half-life in vivo” value under setting [5] turned out to be 12.9 ± 2.6 h. Further, the “total protein half-life in vivo” value by setting is: under setting [6], 5.35 ± 0.61 h; under setting [7], 11.2 ± 1.1 h; under setting [8], 5.72 ± 0.41 h; under setting [9], 11.5 ± 0.7 h.
As for “MILHPSLASANPLHYGRELTALDNLDFGSLHLDIEDSSFINNITFGMKTVQAVARQTPHPLSFHFMLARPQRWFNALAEIRPAWIFVHAETLDYPSETLTEIRHTGARAGLVFNPATPIDAWRYLASELDGVMVMTSEPDGQGQRFIPSMCEKIQKVRTAFPQTECWADGGITLAAAQQLAAAGAQHMVIGRALFSSSDYRATLAQFATL”, the “total protein half-life in vivo” value by setting is: under setting [1], 5.63 ± 0.16 h; under setting [4], 1.44 h; under setting [5], 0.974 h.
As to “MPDAKKQGRSNKAMTFFVCFLAALAGLLFGLDIGVIAGALPFIADEFQITSHTQEWVVSSMMFGAAVGAVGSGWLSFKLGRKKSLMIGAILFVAGSLFSAAAPNVEVLILSRVLLGLAVGVASYTAPLYLSEIAPEKIRGSMISMYQLMITIGILGAYLSDTAFSYTGAWRWMLGVIIIPAILLLIGVFFLPDSPRWFAAKRRFVDAERVLLRLRDTSAEAKRELDEIRESLQVKQSGWALFKENSNFRRAVFLGVLLQVMQQFTGMNVIMYYAPKIFELAGYTNTTEQMWGTVIVGLTNVLATFIAIGLVDRWGRKPTLTLGFLVMAAGMGVLGTMMHIGIHSPSAQYFAIAMLLMFIVGFAMSAGPLIWVLCSEIQPLKGRDFGITCSTATNWIANMIVGATFLTMLNTLGNANTFWVYAALNVLFILLTLWLVPETKHVSLEHIERNLMKGRKLREIGAHD [P0AEP1]”, the “total protein half-life in vivo” value reads like this: under setting [11], 4.26 h; under setting [12], 4.28 h; under setting [3], 6.91 h; under setting [10], 2.58 h; under setting [4], 4.51 h; under setting [8], 5.628 ± 0.028 h. The “total protein half-life in vivo” value under setting [9] was determined as 9.86 h.
“MSTTNHDHHIYVLMGVSGSGKSAVASEVAHQLHAAFLDGDFLHPRRNIEKMASGEPLNDDDRKPWLQALNDAAFAMQRTNKVSLIVCSALKKHYRDLLREGNPNLSFIYLKGDFDVIESRLKARKGHFFKTQMLVTQFETLQEPGADETDVLVVDIDQPLEGVVASTIEVIKKGK”: the “total protein half-life in vivo” value is 5.07 ± 0.67 h under setting [1]; 4.474 ± 0.042 h under setting [11]; 4.01 h under setting [12]; 4.121 ± 0.011 h under setting [3]; 3.02 ± 0.08 h under setting [10]; above 8 h under setting [4]. Besides, the “total protein half-life in vivo” value is 8.67 h under setting [5]; 3.92 ± 0.44 h under setting [6]; 6.38 ± 0.14 h under setting [7]; 4.1 h under setting [8]; 9.14 ± 0.42 h under setting [9].
Turning to “MIPEKRIIRRIQSGGCAIHCQDCSISQLCIPFTLNEHELDQLDNIIERKKPIQKGQTLFKAGDELKSLYAIRSGTIKSYTITEQGDEQITGFHLAGDLVGFDAIGSGHHPSFAQALETSMVCEIPFETLDDLSGKMPNLRQQMMRLMSGEIKGDQDMILLLSKKNAEERLAAFIYNLSRRFAQRGFSPREFRLTMTRGDIGNYLGLTVETISRLLGRFQKSGMLAVKGKYITIENNDALAQLAGHTRNVA [P0A9E5]”, the “total protein half-life in vivo” value worked out at 4.34 ± 0.13 h under setting [1]; 2.99 ± 0.00054 h under setting [11]; 1.2 ± 0.057 h under setting [12]; 1.4 ± 0.028 h under setting [2]; 1.24 ± 0.03 h under setting [3]; 1.23 ± 0.064 h under setting [10]. Further, the “total protein half-life in vivo” value under setting [4] turned out to be 1.708 ± 0.0036 h; the “total protein half-life in vivo” value under setting [5] is 2.2 ± 0.069 h; the “total protein half-life in vivo” value under setting [6] was found to be 1.35 ± 0.091 h; the “total protein half-life in vivo” value under setting [7] turned out to be 1.68 ± 0.09 h; the “total protein half-life in vivo” value under setting [8] was determined as 1.65 ± 0.039 h; the “total protein half-life in vivo” value under setting [9] was 2.37 ± 0.86 h.
For the sequence “MMVTVVSNYCQLSQTQLSQTFAEKFTVTEELLQSLKKTALSGDEESIELLHNIALGYDKFGKEAEDILYHIVRTPTNETLSIIRLIKNACLKLYNLAHIATNSPLKSHDSDDLLFKKLFSPSKLMTIIGDEIPLISEKQSLSKVLLNDENNELSDGTNFWDKNRQLTTDEIACYLQKIAANAKNTQVNYPTGLYVPYSTRTHLEDALNENIKSDPSWPNEVQLFPINTGGHWILVSLQKIVNKKNNKLQIKCVIFNSLRALGYDKENSLKRVINSFNSELMGEMSNNNIKVHLNEPEIIFLHADLQQYLSQSCGAFVCMAAQEVIEQRESNSDSAPYTLLKNHADRFKKYSAEEQYEIDFQHRLANRNCYLDKYGDANINHYYRNLEIKHSQPKNRASGKRVS”, the “total protein half-life in vivo” value under setting [1] was determined as 6.83 h.
Regarding “MATIKDVARLAGVSVATVSRVINNSPKASEASRLAVHSAMESLSYHPNANARALAQQTTETVGLVVGDVSDPFFGAMVKAVEQVAYHTGNFLLIGNGYHNEQKERQAIEQLIRHRCAALVVHAKMIPDADLASLMKQMPGMVLINRILPGFENRCIALDDRYGAWLATRHLIQQGHTRIGYLCSNHSISDAEDRLQGYYDALAESGIAANDRLVTFGEPDESGGEQAMTELLGRGRNFTAVACYNDSMAAGAMGVLNDNGIDVPGEISLIGFDDVLVSRYVRPRLTTVRYPIVTMATQAAELALALADNRPLPEITNVFSPTLVRRHSVSTPSLEASHHATSD”, the “total protein half-life in vivo” value is, setting by setting: under setting [1], 5.91 ± 1.8 h; under setting [12], 3.24 ± 0.35 h; under setting [2], 2.72 ± 0.32 h; under setting [3], 2.572 ± 0.0072 h; under setting [10], 2.29 ± 0.2 h; under setting [4], 4.35 ± 0.17 h. For the same sequence, the “total protein half-life in vivo” value runs as follows: under setting [5], 7.06 ± 0.13 h; under setting [6], 2.8 ± 0.21 h; under setting [7], 3.77 ± 0.39 h; under setting [8], 3.26 ± 0.047 h; under setting [9], 6.28 ± 0.3 h.
